The test system of the data set is Escherichia coli TOP10. The data set is described as follows: shrunken log2 fold change of peptide-encoding DNA abundance (4.5 h post-induction vs induction); higher = less antimicrobial activity (less host growth inhibition). Conditions: time post-induction: 4.5 h; library: site-saturation at positions 5, 18, 19, 20.
In the case of RRIRMRPPRLPRPRPRPWCHPRP, the “shrunken log2 fold change” value turned out to be 0.0355.

With RRIRSRPPRLPRPRPRPKITPRP, the “shrunken log2 fold change” value is -0.325.

Consider RRIRYRPPRLPRPRPRPEGYPRP, for which the “shrunken log2 fold change” value was -0.01.

As to RRIRKRPPRLPRPRPRPKMTPRP, the “shrunken log2 fold change” value stood at 0.187.

As for RRIRARPPRLPRPRPRPSAKPRP, the “shrunken log2 fold change” value was 0.471.

On to RRIRMRPPRLPRPRPRPQDRPRP, for which the “shrunken log2 fold change” value is 0.179.

In the case of RRIRSRPPRLPRPRPRPKPNPRP, the “shrunken log2 fold change” value was determined as 0.217.

RRIRQRPPRLPRPRPRPDQEPRP: the “shrunken log2 fold change” value worked out at 0.0119.

For RRIRNRPPRLPRPRPRPYHCPRP, the “shrunken log2 fold change” value is -0.0116.

Consider RRIRNRPPRLPRPRPRPNSSPRP, for which the “shrunken log2 fold change” value is -0.219.

RRIRKRPPRLPRPRPRPNVWPRP: the “shrunken log2 fold change” value was 0.258.

RRIRCRPPRLPRPRPRPMYHPRP: the “shrunken log2 fold change” value was -0.974.

RRIRARPPRLPRPRPRPMCIPRP: the “shrunken log2 fold change” value was found to be 0.143.

Take RRIRNRPPRLPRPRPRPVCEPRP: the “shrunken log2 fold change” value turned out to be 1.34.

With RRIRHRPPRLPRPRPRPQSSPRP, the “shrunken log2 fold change” value was -0.0152.

As to RRIRHRPPRLPRPRPRPQNDPRP, the “shrunken log2 fold change” value is 0.0173.

Regarding RRIRFRPPRLPRPRPRPNFPPRP, the “shrunken log2 fold change” value is -0.254.

On to RRIRFRPPRLPRPRPRPPSPPRP, for which the “shrunken log2 fold change” value worked out at 0.688.

As for RRIRQRPPRLPRPRPRPKFLPRP, the “shrunken log2 fold change” value was -0.157.

Turning to RRIRIRPPRLPRPRPRPWDKPRP, the “shrunken log2 fold change” value was -0.0749.

In the case of RRIRARPPRLPRPRPRPDQGPRP, the “shrunken log2 fold change” value is 0.261.

With RRIRRRPPRLPRPRPRPECDPRP, the “shrunken log2 fold change” value turned out to be 0.889.

As for RRIRVRPPRLPRPRPRPKEQPRP, the “shrunken log2 fold change” value is -0.0164.

Take RRIRARPPRLPRPRPRPQFIPRP: the “shrunken log2 fold change” value is -0.382.

Take RRIRPRPPRLPRPRPRPDGIPRP: the “shrunken log2 fold change” value turned out to be 0.0121.

As to RRIRLRPPRLPRPRPRPKCMPRP, the “shrunken log2 fold change” value was -0.152.

Regarding RRIRCRPPRLPRPRPRPLTFPRP, the “shrunken log2 fold change” value was -0.419.

Turning to RRIRSRPPRLPRPRPRPVMTPRP, the “shrunken log2 fold change” value was -0.0963.

For RRIRHRPPRLPRPRPRPGRIPRP, the “shrunken log2 fold change” value came to 0.136.

RRIRLRPPRLPRPRPRPVSKPRP: the “shrunken log2 fold change” value is -0.181.

Take RRIRDRPPRLPRPRPRPQKQPRP: the “shrunken log2 fold change” value was 0.086.

For the sequence RRIRSRPPRLPRPRPRPHAVPRP, the “shrunken log2 fold change” value turned out to be 0.0594.

Take RRIRWRPPRLPRPRPRPDNRPRP: the “shrunken log2 fold change” value is -0.213.

RRIRVRPPRLPRPRPRPHIKPRP: the “shrunken log2 fold change” value is -0.389.

On to RRIRRRPPRLPRPRPRPRAHPRP, for which the “shrunken log2 fold change” value turned out to be 0.592.

On to RRIRGRPPRLPRPRPRPHYHPRP, for which the “shrunken log2 fold change” value was -0.421.

As for RRIRYRPPRLPRPRPRPQCNPRP, the “shrunken log2 fold change” value was -0.269.

For RRIRARPPRLPRPRPRPPKQPRP, the “shrunken log2 fold change” value amounted to 0.0504.

In the case of RRIRRRPPRLPRPRPRPNVRPRP, the “shrunken log2 fold change” value was -0.0448.

With RRIRVRPPRLPRPRPRPSCAPRP, the “shrunken log2 fold change” value is -0.16.

Regarding RRIRPRPPRLPRPRPRPNWYPRP, the “shrunken log2 fold change” value is -0.338.

Turning to RRIRQRPPRLPRPRPRPVTNPRP, the “shrunken log2 fold change” value is 0.0368.

With RRIRDRPPRLPRPRPRPQTGPRP, the “shrunken log2 fold change” value is -0.283.

As for RRIRCRPPRLPRPRPRPWGLPRP, the “shrunken log2 fold change” value was -0.268.

As for RRIRVRPPRLPRPRPRPGTKPRP, the “shrunken log2 fold change” value was found to be 0.193.

Regarding RRIRIRPPRLPRPRPRPDITPRP, the “shrunken log2 fold change” value was -0.0982.

With RRIRVRPPRLPRPRPRPIFYPRP, the “shrunken log2 fold change” value is -0.378.

For the sequence RRIRYRPPRLPRPRPRPSHHPRP, the “shrunken log2 fold change” value is -1.2.

Consider RRIRLRPPRLPRPRPRPASYPRP, for which the “shrunken log2 fold change” value was -0.308.

Take RRIRARPPRLPRPRPRPQDLPRP: the “shrunken log2 fold change” value is -0.0381.

As to RRIRTRPPRLPRPRPRPIIYPRP, the “shrunken log2 fold change” value is -0.216.

With RRIRMRPPRLPRPRPRPHHAPRP, the “shrunken log2 fold change” value amounted to 0.0324.

In the case of RRIRWRPPRLPRPRPRPPTMPRP, the “shrunken log2 fold change” value is 0.264.

Consider RRIRHRPPRLPRPRPRPKLNPRP, for which the “shrunken log2 fold change” value is -0.248.

Turning to RRIRNRPPRLPRPRPRPAQMPRP, the “shrunken log2 fold change” value amounted to 0.177.

RRIRPRPPRLPRPRPRPRSNPRP: the “shrunken log2 fold change” value was -0.247.

RRIRRRPPRLPRPRPRPKYWPRP: the “shrunken log2 fold change” value was found to be 0.00676.

Regarding RRIRPRPPRLPRPRPRPLVEPRP, the “shrunken log2 fold change” value turned out to be 0.846.

In the case of RRIRPRPPRLPRPRPRPKNNPRP, the “shrunken log2 fold change” value is -0.475.

For RRIRHRPPRLPRPRPRPVNTPRP, the “shrunken log2 fold change” value was -0.18.

Turning to RRIRARPPRLPRPRPRPGKSPRP, the “shrunken log2 fold change” value was found to be 0.294.

RRIRQRPPRLPRPRPRPIGTPRP: the “shrunken log2 fold change” value stood at 0.0722.

On to RRIRKRPPRLPRPRPRPVGTPRP, for which the “shrunken log2 fold change” value was determined as 2.46.

Regarding RRIRGRPPRLPRPRPRPLNNPRP, the “shrunken log2 fold change” value was -0.109.

With RRIRPRPPRLPRPRPRPRRGPRP, the “shrunken log2 fold change” value is 0.46.

Take RRIRNRPPRLPRPRPRPLLAPRP: the “shrunken log2 fold change” value was 0.253.

On to RRIRCRPPRLPRPRPRPWASPRP, for which the “shrunken log2 fold change” value stood at 0.0212.

As for RRIRYRPPRLPRPRPRPLWVPRP, the “shrunken log2 fold change” value is -0.0829.

As for RRIRWRPPRLPRPRPRPWILPRP, the “shrunken log2 fold change” value is -0.19.

As for RRIRGRPPRLPRPRPRPCHKPRP, the “shrunken log2 fold change” value was found to be 0.121.

Turning to RRIRWRPPRLPRPRPRPWRRPRP, the “shrunken log2 fold change” value came out at 0.117.

On to RRIRGRPPRLPRPRPRPHEPPRP, for which the “shrunken log2 fold change” value was found to be 1.15.

RRIRLRPPRLPRPRPRPSWLPRP: the “shrunken log2 fold change” value was -0.532.

With RRIRTRPPRLPRPRPRPSYSPRP, the “shrunken log2 fold change” value was -0.316.

Regarding RRIRERPPRLPRPRPRPGREPRP, the “shrunken log2 fold change” value was determined as 0.241.

For RRIRWRPPRLPRPRPRPSPMPRP, the “shrunken log2 fold change” value is -0.108.

In the case of RRIRSRPPRLPRPRPRPFFIPRP, the “shrunken log2 fold change” value is -0.547.

On to RRIRVRPPRLPRPRPRPVGAPRP, for which the “shrunken log2 fold change” value amounted to 0.329.

For RRIRYRPPRLPRPRPRPHGSPRP, the “shrunken log2 fold change” value is -0.00822.

In the case of RRIRWRPPRLPRPRPRPEMCPRP, the “shrunken log2 fold change” value is -0.0695.

For RRIRNRPPRLPRPRPRPWTCPRP, the “shrunken log2 fold change” value was found to be 0.0493.

Regarding RRIRKRPPRLPRPRPRPDYTPRP, the “shrunken log2 fold change” value was -0.193.

Take RRIRARPPRLPRPRPRPAEIPRP: the “shrunken log2 fold change” value came to 0.233.

Turning to RRIRFRPPRLPRPRPRPIDEPRP, the “shrunken log2 fold change” value stood at 0.121.

Consider RRIRNRPPRLPRPRPRPWRCPRP, for which the “shrunken log2 fold change” value is -0.0792.

Regarding RRIRKRPPRLPRPRPRPTWNPRP, the “shrunken log2 fold change” value was 0.197.

Regarding RRIRRRPPRLPRPRPRPKFDPRP, the “shrunken log2 fold change” value was determined as 0.101.

For the sequence RRIRVRPPRLPRPRPRPCYMPRP, the “shrunken log2 fold change” value was found to be 0.155.

For RRIRLRPPRLPRPRPRPIPRPRP, the “shrunken log2 fold change” value worked out at 0.0727.

In the case of RRIRKRPPRLPRPRPRPPVLPRP, the “shrunken log2 fold change” value is -0.0742.

Take RRIRGRPPRLPRPRPRPAAVPRP: the “shrunken log2 fold change” value was found to be 1.51.

RRIRSRPPRLPRPRPRPLCNPRP: the “shrunken log2 fold change” value is -0.278.

Take RRIRNRPPRLPRPRPRPCDFPRP: the “shrunken log2 fold change” value is -0.529.

For RRIRQRPPRLPRPRPRPLRAPRP, the “shrunken log2 fold change” value came to 0.825.

RRIRYRPPRLPRPRPRPGIKPRP: the “shrunken log2 fold change” value was -0.311.

As for RRIRWRPPRLPRPRPRPGEWPRP, the “shrunken log2 fold change” value amounted to 0.162.

Turning to RRIRYRPPRLPRPRPRPGIIPRP, the “shrunken log2 fold change” value was -0.0361.

Consider RRIRYRPPRLPRPRPRPTHRPRP, for which the “shrunken log2 fold change” value was -0.1.

RRIRPRPPRLPRPRPRPIEIPRP: the “shrunken log2 fold change” value is -0.0794.

Turning to RRIRYRPPRLPRPRPRPPLIPRP, the “shrunken log2 fold change” value is -0.185.

In the case of RRIRLRPPRLPRPRPRPDCNPRP, the “shrunken log2 fold change” value came to 0.0608.

Turning to RRIRGRPPRLPRPRPRPGYAPRP, the “shrunken log2 fold change” value came out at 0.222.

Take RRIRNRPPRLPRPRPRPAMMPRP: the “shrunken log2 fold change” value was 0.0394.

In the case of RRIRIRPPRLPRPRPRPPLSPRP, the “shrunken log2 fold change” value was -0.128.

In the case of RRIRSRPPRLPRPRPRPVRWPRP, the “shrunken log2 fold change” value was 0.893.

With RRIRERPPRLPRPRPRPYKLPRP, the “shrunken log2 fold change” value is -1.4.

For RRIRWRPPRLPRPRPRPNKGPRP, the “shrunken log2 fold change” value is -0.346.

For RRIRLRPPRLPRPRPRPHRGPRP, the “shrunken log2 fold change” value is -0.00203.

As for RRIRNRPPRLPRPRPRPPKSPRP, the “shrunken log2 fold change” value stood at 0.338.

In the case of RRIRLRPPRLPRPRPRPQQYPRP, the “shrunken log2 fold change” value is -0.277.

Consider RRIRGRPPRLPRPRPRPDYNPRP, for which the “shrunken log2 fold change” value was -0.12.

For RRIRTRPPRLPRPRPRPLGCPRP, the “shrunken log2 fold change” value is 0.0809.

RRIRPRPPRLPRPRPRPKKRPRP: the “shrunken log2 fold change” value was found to be 0.136.

Turning to RRIRFRPPRLPRPRPRPMHKPRP, the “shrunken log2 fold change” value was -0.263.

Consider RRIRERPPRLPRPRPRPAVGPRP, for which the “shrunken log2 fold change” value is 0.209.

Consider RRIRGRPPRLPRPRPRPISYPRP, for which the “shrunken log2 fold change” value was -0.0956.

For the sequence RRIRARPPRLPRPRPRPSKIPRP, the “shrunken log2 fold change” value is -0.265.

For RRIRTRPPRLPRPRPRPSGNPRP, the “shrunken log2 fold change” value was -0.168.

As for RRIRNRPPRLPRPRPRPINNPRP, the “shrunken log2 fold change” value is -0.652.

For the sequence RRIRDRPPRLPRPRPRPGEAPRP, the “shrunken log2 fold change” value was found to be 1.1.

Take RRIRIRPPRLPRPRPRPSKIPRP: the “shrunken log2 fold change” value was -0.441.

Take RRIRDRPPRLPRPRPRPETPPRP: the “shrunken log2 fold change” value came out at 0.904.

For RRIRGRPPRLPRPRPRPYAIPRP, the “shrunken log2 fold change” value is -0.0622.

RRIRWRPPRLPRPRPRPLNPPRP: the “shrunken log2 fold change” value was -0.0128.

Regarding RRIRMRPPRLPRPRPRPNMLPRP, the “shrunken log2 fold change” value is -0.358.

For the origin of these results see the supplement of paper PMC9112550, “Optimization of the antimicrobial peptide Bac7 by deep mutational scanning” (BMC Biology, 2022).
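Further: peptides expressed intracellularly from a pBAD plasmid library in pooled LB shake-flask culture, induced with 0.3% L-arabinose, DNA abundance read by NGS, three biological replicates, DESeq2 with apeglm shrinkage.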
